Data on one substance can be found in article PMC6823450.

Where “and” joins values, the source holds several entries; their conditions need not be identical. Identical values can stand only once.

The target in experiment [1] is HIV-1 matrix protein p17 (wild type) (HIV-1) (UniProt P03347). Kind of experiment: cross-linking; p17 (2 μg/ml in 20 μl) 2 h at 37 °C in PBS alone or with heparin, then 1 mM BS3 for 2 h at 37 °C; SDS-PAGE and Western blot with anti-p17; bands of 17, 34, 51 and 68 kDa quantified.
Experiment [2] shares this target. Kind of experiment: SPR; p17 immobilised on a CM5 sensorchip by amine coupling (2,500 RU); free p17 (15.7-2000 nM) injected in HBS-EP (10 mM HEPES pH 7.4, 150 mM NaCl, 3 mM EDTA, 0.005% P20) for 2 min; BIAcore X 100; Kd from equilibrium RU (saturation curve, Scatchard) with two softwares; cannot tell dimer, trimer or higher oligomers apart.

In experiment [1], “HIV-1 matrix protein p17 (wild type) (from UniProt P03347 1-132) (natural protein)” showed a % of total protein as dimer of 29%, a % of total protein as tetramer of 3%, a % of total protein as trimer of 12% and a % of total protein remaining monomer of 59%. In experiment [1], the fold increase of dimer with heparin against no heparin was 2 fold; the fold increase of tetramer with heparin against no heparin was determined as 3.4 fold; the fold increase of trimer with heparin against no heparin is 4.2 fold; the stoichiometry N was 2 and 3 and 4. Besides, the Kd in experiment [2] is 0.529 µM and 0.665 µM.
